Measurements reported in publication PMC3280358 (Molecular Cell, 2012).

Molecular target: T1, recombinant full-length FLAG-Nbs1 (human, UniProt O60934 1-754)
T1 construct: Nbs1 (Nijmegen breakage syndrome gene product), human, full length; also called recombinant full-length Nbs1; source: recombinant, a gift from Tanya Paull
T1 sequence (looked up): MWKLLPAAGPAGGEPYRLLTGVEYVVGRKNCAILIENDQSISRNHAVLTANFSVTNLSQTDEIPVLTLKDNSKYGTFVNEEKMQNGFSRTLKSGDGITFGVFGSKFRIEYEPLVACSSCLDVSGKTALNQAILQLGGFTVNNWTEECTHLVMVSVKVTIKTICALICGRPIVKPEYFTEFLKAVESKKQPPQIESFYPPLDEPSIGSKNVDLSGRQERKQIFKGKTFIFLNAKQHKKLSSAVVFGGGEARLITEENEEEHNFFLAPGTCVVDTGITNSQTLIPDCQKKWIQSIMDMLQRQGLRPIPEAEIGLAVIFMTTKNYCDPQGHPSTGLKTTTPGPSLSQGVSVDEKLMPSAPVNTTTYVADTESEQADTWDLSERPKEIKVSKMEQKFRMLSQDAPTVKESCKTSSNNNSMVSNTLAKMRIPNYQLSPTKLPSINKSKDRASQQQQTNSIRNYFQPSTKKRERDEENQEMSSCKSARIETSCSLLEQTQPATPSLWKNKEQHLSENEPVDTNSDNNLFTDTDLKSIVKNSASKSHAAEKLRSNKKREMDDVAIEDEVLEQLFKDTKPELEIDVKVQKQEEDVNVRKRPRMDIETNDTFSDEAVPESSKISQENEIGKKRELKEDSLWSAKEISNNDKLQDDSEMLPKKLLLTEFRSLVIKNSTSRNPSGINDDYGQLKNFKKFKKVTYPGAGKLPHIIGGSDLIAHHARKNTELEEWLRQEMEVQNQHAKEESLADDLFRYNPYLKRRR
Assay: far-Western, overlay or dot blot; Rad51 NTD kinase reaction (250 μM ATP) resolved by SDS-PAGE, transferred to nitrocellulose, incubated with recombinant full-length FLAG-Nbs1 (∼ 2 μg), detected with anti-Nbs1 antibody
Conditions: both partners purified

Binder | binding result
Rad51 NTD with S14D substitution (domain or fragment, human, UniProt Q06609 1-86, looked up, also called NTD S14D; source: recombinant) MAMQMQLEANADTDVEEESFGPQPISRLEQCGINANDVKKLEEAGFHTVEAVAYAPKKELINIKGISEAKADKILAEAAKLVPMGF | binds
Rad51 NTD with S14E substitution (domain or fragment, human, UniProt Q06609 1-86, looked up, also called NTD S14E; source: recombinant) MAMQMQLEANADTEVEEESFGPQPISRLEQCGINANDVKKLEEAGFHTVEAVAYAPKKELINIKGISEAKADKILAEAAKLVPMGF | binds
